Measurements reported in patent US20260216242A1, “ALPP-SPECIFIC VARIANT ANTIGEN BINDING MOLECULES” (ALMAC DISCOVERY LIMITED, priority 2022, published 2026).

How the values were obtained:
[1] = target: T1, ALPP expressed on the surface of CHO cells (CHO-ALPP) (Homo sapiens, UniProt P05187); assay: Cell-surface binding by flow cytometry, CHO-ALPP; conditions: VHH proteins
T1 construct: expressed in transfected cells
Experimental: (§1) C-terminal His tagged VHH proteins were assessed for ALPP, ALPPL2, ALPI and ALPL cell-surface binding by flow cytometry. Binders encompassing different epitope bins were screened on CHO cells stably expressing ALPP, ALPPL2, ALPI or ALPL. High levels of cell-surface proteins expression were confirmed for each of the cell-lines by flow cytometry.
(§2) Cell surface binding of test agents to hALPP isoforms was characterized in four CHO-ALPP isoform stably transfected cell lines (CHO-ALPP, CHO-ALPPL2, CHO-ALPI and CHO-ALPL) and the resulting KDapp values determined. Adherent cells were detached from tissue culture flasks by incubating with 0.1% EDTA/PBS solution at 37° C. for ~10 minutes or until cells detached easily. […] Binding of VHH (His6 tagged) agents was determined by adding 100 μl of anti-x6His tag Ab (Abcam) per cell pellet sample as appropriate and incubating on ice for 30 mins. […]
(§3) VHH-hFc proteins were assessed for human ALPP, ALPPL2, ALPI and ALPL cell-surface binding by flow cytometry. […]
(§4) Cell surface binding of test agents to hALPP isoforms was characterized in four CHO-ALPP isoform transfectant cell lines (CHO-ALPP, CHO-ALPPL2, CHO-ALPI and CHO-ALPL) and the resulting KDapp values determined. […] Binding of VHH-hFc agents was determined by adding 100 μl of Fitc-anti-human Ab (ThermoFisher) and incubating for 30 mins on ice in the dark. […]

[2] = target: T2, ALPPL2 expressed on the surface of CHO cells (CHO-ALPPL2) (Homo sapiens, UniProt P10696); assay: Cell-surface binding by flow cytometry, CHO-ALPPL2; conditions: VHH His proteins
T2 construct: expressed in transfected cells
Experimental: as §1, §2, §3, §4

T2 sequence (P10696 20-503 limits assumed): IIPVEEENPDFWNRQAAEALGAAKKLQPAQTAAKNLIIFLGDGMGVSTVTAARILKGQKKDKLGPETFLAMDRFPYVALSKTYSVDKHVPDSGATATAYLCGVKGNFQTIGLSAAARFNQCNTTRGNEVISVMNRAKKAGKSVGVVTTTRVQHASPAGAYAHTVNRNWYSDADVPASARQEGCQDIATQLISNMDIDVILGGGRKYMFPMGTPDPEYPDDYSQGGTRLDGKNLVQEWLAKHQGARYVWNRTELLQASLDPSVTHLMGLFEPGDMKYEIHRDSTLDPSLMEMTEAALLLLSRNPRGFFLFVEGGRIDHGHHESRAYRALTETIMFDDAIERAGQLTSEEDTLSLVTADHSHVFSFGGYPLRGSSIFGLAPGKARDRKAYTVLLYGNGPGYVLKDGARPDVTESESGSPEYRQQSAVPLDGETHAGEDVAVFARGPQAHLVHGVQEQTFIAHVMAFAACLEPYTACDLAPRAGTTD
T1 sequence (P05187 23-506 limits assumed): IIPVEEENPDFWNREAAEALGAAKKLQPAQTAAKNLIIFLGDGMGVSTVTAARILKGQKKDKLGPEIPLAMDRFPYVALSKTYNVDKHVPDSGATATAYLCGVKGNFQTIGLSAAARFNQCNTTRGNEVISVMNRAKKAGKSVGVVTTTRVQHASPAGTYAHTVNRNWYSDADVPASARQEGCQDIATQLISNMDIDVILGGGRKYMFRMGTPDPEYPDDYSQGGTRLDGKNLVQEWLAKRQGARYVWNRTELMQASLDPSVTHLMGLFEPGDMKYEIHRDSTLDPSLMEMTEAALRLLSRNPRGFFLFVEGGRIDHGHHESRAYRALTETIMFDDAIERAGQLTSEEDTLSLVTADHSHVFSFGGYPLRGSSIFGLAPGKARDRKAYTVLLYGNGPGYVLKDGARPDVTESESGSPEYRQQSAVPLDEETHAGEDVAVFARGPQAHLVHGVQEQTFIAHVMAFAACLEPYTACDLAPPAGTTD

B1: D10: ALPP targeting VHH domain, SEQ ID NO: 28 (protein)
VHH: QVQLVESGGGLVQPGGSLRLSCAASGSIFSVNTMGWYRQAPGKQRDLVAVATSGGTIHYADSVKGRFTISRDNAKNTVYLQMNSLKPEDTAVYYCNLVVPYGMIAGDHDYWGQGTKVTVSS
B1 was tested, and the “binding preference ALPP versus ALPPL2 on CHO cells” value [1] was “preferential binding to ALPP over ALPPL2” and the “KDapp CHO-ALPPL2” value [2] was “Binding”.
